Data set [1] concerns the molecule itself. As to the kind of experiment: SEC; Superdex 200 HR 10/300, 25 °C, pH 5, 0.3 ml/min; step: the native enzyme to high molecular weight aggregates (void volume), compared with pH 7; no seeds. Background: Size exclusion chromatography separates by hydrodynamic size, large species first.
Data set [2] concerns the molecule itself. As to the kind of experiment: thioflavin T fluorescence kinetics; pH 5, 5 uM protein, 10 uM ThT, emission at 480 nm against time, seeded with preformed HylP2 fibrils; step: the native enzyme to fibrils.

B1: bacteriophage-associated hyaluronate lyase HylP2 (enzyme, Streptococcus pyogenes bacteriophage, UniProt Q54699 1-337, looked up)
chain: MSENIPLRVQFKRMKAAEWARSDVILLESEIGFETDTGFARAGDGHNRFSDLGYISPLDYNLLTNKPNIDGLATKVETAQKLQQKADKETVYTKAESKQELDKKLNLKGGVMTGQLKFKPAATVAYSSSTGGAVNIDLSSTRGAGVVVYSDNDTSDGPLMSLRTGKETFNQSALFVDYKGTTNAVNIAMRHATTPNFSSALNITSGNENGSAMQLRGSEKALGTLKITHENPSIGADYDKNAARYPLILSKRQNGAGTAAQGIYINSTSGTTGKLLRIRNLSDDKFYVKSDGGFYAKETSQIDGNLKLKDPTANDHAATKAYVDKAISELKKLILKK
notes: hyaluronate lyase HylP2 encoded by a Streptococcus pyogenes bacteriophage, full length, residues 1-337; also called HylP2_(1-337); phage hyaluronate lyase; source: E. coli BL21 (DE3), purified
For B1, in data set [1], the binding result is reported as “binds”.

B2: HylP_(M179V,M181V) (enzyme, Streptococcus pyogenes bacteriophage, UniProt P15316 1-371, looked up)
chain: MTENIPLRVQFKRMSADEWARSDVILLEGEIGFETDTGFAKFGDGQNTFSKLKYLTGPKGPKGDTGLQGKTGGTGPRGPAGKPGTTDYDQLQNKPDLGAFAQKEETNSKITKLESSKADKSAVYSKAESKIELDKKLSLTGGIVTGQLQFKPNKSGIKPSSSVGGAINIDMSKSEGAAVVVYTNKDTTDGPLMILRSDKDTFDQSAQFVDYSGKTNAVNIVMRQPSAPNFSSALNITSANEGGSAMQIRGVEKALGTLKITHENPNVEAKYDENAAALSIDIVKKQKGGKGTAAQGIYINSTSGTAGKMLRIRNKNEDKFYVGPDGGFHSGANSTVAGNLTVKDPTSGKHAATKDYVDEKIAELKKLILKK
notes: hyaluronate lyase HylP of a Streptococcus pyogenes bacteriophage, residues 1-371, with M179V and M181V; made from the vector construct of full length HylP; Generated from the vector construct of m2; also called hot spot double mutant of HylP; source: E. coli BL21 (DE3), purified
On to B2, for which the binding result in data set [2] is “binds”.

Source of the values: publication PMC4585773, “The C-terminus hot spot region helps in the fibril formation of bacteriophage-associated hyaluronate lyase (HylP2)” (Scientific Reports, 2015).
